Assay [1] has as its target mitochondrial transcription factor B2 (TFB2M) protein (human) (UniProt Q9H5Q4). In words: in situ proximity ligation assay (anti-TFAM sc-376672 and anti-TFB2M 13676), fixed PBMCs from healthy controls (n=20), mean.
Assay [2] has the same target. In words: in situ proximity ligation assay (anti-TFAM sc-376672 and anti-TFB2M 13676), fixed PBMCs from septic patients (n=10), mean.

UniProt Q9H5Q4, sequence (Q9H5Q4 44-396): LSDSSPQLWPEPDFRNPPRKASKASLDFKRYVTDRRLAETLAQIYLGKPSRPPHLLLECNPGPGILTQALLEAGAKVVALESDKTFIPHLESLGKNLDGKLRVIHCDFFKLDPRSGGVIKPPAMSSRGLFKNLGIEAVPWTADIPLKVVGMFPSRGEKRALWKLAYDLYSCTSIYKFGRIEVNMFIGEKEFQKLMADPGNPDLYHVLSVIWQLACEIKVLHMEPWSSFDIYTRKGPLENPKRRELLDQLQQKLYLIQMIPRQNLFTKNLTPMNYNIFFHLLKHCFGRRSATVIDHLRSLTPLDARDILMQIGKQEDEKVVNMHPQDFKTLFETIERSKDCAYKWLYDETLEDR

As to “mature mitochondrial transcription factor A (TFAM) protein (from UniProt Q00059 43-246)”, the PLA signals per cell (signals per cell) in assay [1] turned out to be 4.5; in assay [2], 1.2.

Values taken from patent US20250271449A1.
